Patent US11260100B2, “Compositions targeting the interaction domain between p27Kip1 and Brk and methods of use thereof to inhibit p27 Y phosphorylation and cdk4 activity” (The Research Foundation for the State University of New York, priority 2014, dated 2022)

What was measured:
MCF7 cells = assay: Tetracycline inducible Alt Brk expression in MCF7 cells; format: cell-based, human; conditions: +Tet
Protocol: FIGS. 8A-8G: Alt Brk (SEQ ID NO: 17) acts as an endogenous inhibitor of Brk. (FIG. 8A) Flag tagged WT p27 was incubated with increasing amount of Flag tagged Alt-Brk (lanes 5-7) in presence of equal amount of Brk. Lane 5: +equimolar Brk and Alt, lane 6: ++2.5×Alt, lane 7: +++5×Alt Immunoblot analysis was performed using Flag, pY88 and pY74 antibodies. (FIG. 8B) Alt-Brk expressing cells were plated on day 0. They were induced (+Tet) or uninduced (−Tet) on day 1 and cells were harvested on days 2, 3 and 4 Immunoblot analysis was performed using N-terminal Brk, C-terminal Brk, Rb, Ser780 pRb, Flag or Actin antibodies. (FIG. 8C) p27 was immunoprecipitated from induced (+) or un-induced (−) Alt Brk expressing cells and immunoblot analysis was performed with p27, pY88 and pY74 antibodies. (FIG. 8D) Alt Brk or TRE3G vector alone cells were treated with + or −Tet and cell counts were used to monitor proliferation. […] (FIG. 8F) p27 was immunoprecipitated from MCF7 cells that were either contact arrested (G0), asynchronous (A), or serum starved with 1% and 0% serum for 48 h. Immunoblot analysis was performed to probe for p27, pY88 and pY74. IgG and Mv1Lu lysates served as a negative control. (FIG. 8G) Expression of WT or mutant p27s was induced by adding Tetracycline to the culture media. p27 was immunoprecipitated from cell lysates and probed for p27, pY88 and pY74 Immunoprecipitation with IgG served as a negative control.
NP-ALT was added to cell media in the absence of fetal bovine serum for 6 hours. This media was removed and replaced with FBS+media, and cells were allowed to recover for 2 days, at which time, cell counts were determined. Counts were standardized to the proliferation seen in the NO FBS untreated control. • Expression in vivo. Generation of the WT-Brk, KM-Brk, and YF-Brk has been described (32) Amphotropic retroviruses were generated by transfection using Lipofectamine 2000 (Life Technologies 11668-019) of HEK 293 cells with pAmpho envelope and pBabe or pTRE3G tetracycline inducible constructs. Following viral infection of MCF7 cells, stable integrants were isolated by puromycin selection. Colonies were pooled to generate stable, puromycin resistant clones. Stable expression was verified by immunoblot and immunofluorescence analysis. Tetracycline inducible expression was achieved by the addition of TetExpress (Clontech) to the media. • Mouse xenograft model. Female NOD/SCID 8 week old mice were injected with MCF7-ALT cells in the 4th mammary gland. Tumors were allowed to develop to a volume of 200 mm3, before treatment. Tumor volume was monitored every other day using digital calipers. Vehicle: daily gavage with PBS. […] Doxy+PD: Daily gavage of Palbociclib 100 mg/kg and 0.1 mg/ml doxycycline added to the drinking water. • Quantitative RT-PCR. […]

[1] = molecular target: T1, Brk phosphorylation of p27 (Homo sapiens, UniProt P46527+Q13882); assay: In vitro Brk phosphorylation of p27 with competitor, pY88/pY74 immunoblot; format: biochemical; conditions: increasing amounts of competitor
T1 construct: were incubated with p27 before the addition of full length Brk and ATP; We incubated full length p27 with Src or Brk in the presence of ATP; purchased SignalChem (GST-PTK6/Brk) or Invitrogen (His-PTK6/Brk); host or cells: p27 made in house in E. coli
T1 sequence (Q13882 whole entry): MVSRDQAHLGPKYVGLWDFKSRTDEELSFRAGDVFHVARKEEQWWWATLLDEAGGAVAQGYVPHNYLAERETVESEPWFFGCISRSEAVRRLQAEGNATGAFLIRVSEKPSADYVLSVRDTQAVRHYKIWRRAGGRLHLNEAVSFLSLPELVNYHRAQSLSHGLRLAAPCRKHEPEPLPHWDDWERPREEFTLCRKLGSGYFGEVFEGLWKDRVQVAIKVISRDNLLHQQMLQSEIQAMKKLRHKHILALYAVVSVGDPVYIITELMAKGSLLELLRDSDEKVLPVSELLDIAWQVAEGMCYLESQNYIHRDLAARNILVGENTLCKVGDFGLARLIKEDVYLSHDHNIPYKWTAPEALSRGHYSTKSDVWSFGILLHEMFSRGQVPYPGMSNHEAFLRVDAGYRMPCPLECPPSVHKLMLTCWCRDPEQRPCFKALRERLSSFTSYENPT
T1 sequence (P46527 whole entry): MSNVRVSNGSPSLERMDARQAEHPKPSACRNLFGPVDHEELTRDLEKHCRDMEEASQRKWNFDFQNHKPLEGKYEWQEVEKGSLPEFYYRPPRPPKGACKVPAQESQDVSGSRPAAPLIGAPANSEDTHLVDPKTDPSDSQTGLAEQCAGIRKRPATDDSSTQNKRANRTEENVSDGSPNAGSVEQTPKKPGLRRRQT
Protocol: FIGS. 3A-3D: SH3:PxxP interaction is required for p27 Y88 phosphorylation. (FIG. 3A) p27 and Brk were incubated with ATP and with increasing concentrations of the PxxP competitor, F58-106, followed by immunoblot analysis with pY88, pY74 and p27 antibodies. Lane 5: +equimolar amount of F58-106 and p27, lane 6: ++2.5×F58-106, lane 7: +++5×F58-106, lane 8: ++++10×F58-106. (FIG. 3B) GST-Brk, p27 and F58-106 were incubated, immunoprecipitated with GST antibodies, followed by immunblot analysis with GST or p27 antibodies. (FIG. 3C) Increasing amounts of GST-SH3, GST-SH2 or GST peptides were incubated with p27, followed by immunoblot analysis with pY88, pY74, p27 and GST antibodies. Lanes 3, 5, 7: 2.5× competitor, lanes 4, 6, […]: 5× competitor. (FIG. 3D) GST-SH3, GST-SH2 or GST peptides were incubated with p27 or ΔK1/K3, followed by metal agarose chromatography and immunoblot analysis with GST and p27 antibodies. Loading control: GST peptides added to the reaction which are not representative of association.
FIGS. 8A-8G: Alt Brk (SEQ ID NO: 17) acts as an endogenous inhibitor of Brk. […]
To directly verify this, we expressed a Flag-tagged Alt-Brk in bacteria and purified this 15 Kd protein (FIG. 8A). When p27 was incubated with Brk, Y88 and Y74 phosphorylation was detected by immunoblot analysis (FIG. 8A, lane 3). […]

B1: Alt-Brk: alternative splice variant of Brk (SEQ ID NO: 17), 15 KD protein with SH3 domain, lacks kinase domain (protein, listed as Homo sapiens)
chain: MVSRDQAHLGPKYVGLWDFKSRTDEELSFRAGDVFHVARKEEQWWWATLLDEAGGAVAQGYVPHNYLAERETVESEPAGHAGCAALQDLAACRGPAAPERGGVLPQPARACELPQGPEPVPRPAAGRALPEARA
MCF7 cells
  Rb phosphorylation on residue Ser780: Rb phosphorylation was reduced
  cell cycle effect (cell counting, FACS): arrested in G1 phase
  endogenous p27 Y74 phosphorylation: unchanged
  endogenous p27 Y88 phosphorylation: reduced
[1]
  p27 Y74 phosphorylation by Brk: not affected
  p27 Y88 phosphorylation by Brk: decreased
